Key:
[1] = target: Nup2p (construct of the data-not-shown experiments not stated) (S. cerevisiae, UniProt P32499 1-720); experiment: radioligand binding
Kap95p (recombinant) = target: T1, Kap95p (recombinant) (S. cerevisiae, UniProt Q06142 1-861); experiment: pull-down
T1 sequence (looked up): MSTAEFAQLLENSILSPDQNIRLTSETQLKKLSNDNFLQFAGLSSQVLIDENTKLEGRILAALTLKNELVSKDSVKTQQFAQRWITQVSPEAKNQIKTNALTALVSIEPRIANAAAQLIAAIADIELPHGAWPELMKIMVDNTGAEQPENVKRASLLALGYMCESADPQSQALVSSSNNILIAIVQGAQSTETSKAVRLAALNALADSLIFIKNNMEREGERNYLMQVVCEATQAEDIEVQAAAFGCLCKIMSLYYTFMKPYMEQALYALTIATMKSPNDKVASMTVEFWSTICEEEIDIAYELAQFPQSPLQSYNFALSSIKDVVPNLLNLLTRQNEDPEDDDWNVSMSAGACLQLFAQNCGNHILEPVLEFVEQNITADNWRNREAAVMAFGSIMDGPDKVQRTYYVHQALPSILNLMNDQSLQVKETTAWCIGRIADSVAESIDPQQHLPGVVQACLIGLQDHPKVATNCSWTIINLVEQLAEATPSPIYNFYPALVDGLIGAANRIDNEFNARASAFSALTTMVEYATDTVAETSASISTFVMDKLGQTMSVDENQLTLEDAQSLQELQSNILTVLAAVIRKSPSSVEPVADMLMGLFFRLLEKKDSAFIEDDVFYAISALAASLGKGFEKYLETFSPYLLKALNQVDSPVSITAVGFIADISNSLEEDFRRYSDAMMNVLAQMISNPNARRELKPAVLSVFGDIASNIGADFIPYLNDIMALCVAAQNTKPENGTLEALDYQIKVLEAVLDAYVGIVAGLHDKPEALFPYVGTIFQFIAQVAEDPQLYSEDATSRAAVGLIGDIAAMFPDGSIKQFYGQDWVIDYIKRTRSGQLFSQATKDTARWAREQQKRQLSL

GST–Nup60p = GST–Nup60p (S. cerevisiae, UniProt P39705 1-539); experiment: pull-down
[2] = target: T2, Kap95p–Kap60p heterodimers (recombinant) (S. cerevisiae, UniProt Q06142 1-861; Q02821 1-542); experiment: pull-down
T2 sequence (looked up) 1: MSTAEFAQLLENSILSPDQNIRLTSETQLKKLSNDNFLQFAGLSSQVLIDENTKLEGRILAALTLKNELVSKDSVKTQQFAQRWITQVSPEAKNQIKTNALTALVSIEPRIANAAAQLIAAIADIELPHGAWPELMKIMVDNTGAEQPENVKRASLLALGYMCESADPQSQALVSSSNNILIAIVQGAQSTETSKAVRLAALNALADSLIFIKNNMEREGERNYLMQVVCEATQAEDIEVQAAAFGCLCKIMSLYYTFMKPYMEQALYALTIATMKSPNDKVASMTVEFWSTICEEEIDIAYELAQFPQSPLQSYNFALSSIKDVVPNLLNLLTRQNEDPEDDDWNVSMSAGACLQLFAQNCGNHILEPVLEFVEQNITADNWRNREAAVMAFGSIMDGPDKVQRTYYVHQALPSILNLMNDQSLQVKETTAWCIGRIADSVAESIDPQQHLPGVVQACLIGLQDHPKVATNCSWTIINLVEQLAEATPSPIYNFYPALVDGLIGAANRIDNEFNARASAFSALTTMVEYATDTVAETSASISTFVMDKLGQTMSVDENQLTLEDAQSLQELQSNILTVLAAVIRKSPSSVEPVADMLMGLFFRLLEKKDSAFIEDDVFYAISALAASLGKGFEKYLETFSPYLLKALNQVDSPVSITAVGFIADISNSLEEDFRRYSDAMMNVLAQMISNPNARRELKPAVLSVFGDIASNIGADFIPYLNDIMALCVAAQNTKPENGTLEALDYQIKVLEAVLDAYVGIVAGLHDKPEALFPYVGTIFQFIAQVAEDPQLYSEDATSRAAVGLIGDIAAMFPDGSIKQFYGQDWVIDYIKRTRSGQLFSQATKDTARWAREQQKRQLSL
T2 sequence (looked up) 2: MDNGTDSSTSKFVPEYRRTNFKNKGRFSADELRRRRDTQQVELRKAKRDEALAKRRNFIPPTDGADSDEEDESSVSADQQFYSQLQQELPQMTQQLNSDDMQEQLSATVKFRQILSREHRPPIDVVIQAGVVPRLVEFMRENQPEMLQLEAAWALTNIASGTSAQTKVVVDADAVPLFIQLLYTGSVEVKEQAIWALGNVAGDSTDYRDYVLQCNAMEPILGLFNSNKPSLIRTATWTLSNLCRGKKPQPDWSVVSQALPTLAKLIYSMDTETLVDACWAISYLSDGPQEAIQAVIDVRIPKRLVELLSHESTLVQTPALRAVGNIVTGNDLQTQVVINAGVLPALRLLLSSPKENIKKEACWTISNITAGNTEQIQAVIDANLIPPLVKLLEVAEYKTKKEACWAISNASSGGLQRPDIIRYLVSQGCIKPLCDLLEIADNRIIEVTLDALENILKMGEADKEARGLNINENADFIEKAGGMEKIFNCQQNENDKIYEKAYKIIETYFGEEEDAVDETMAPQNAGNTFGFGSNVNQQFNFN

Nup2p (construct of the data-not-shown experiments not stated), sequence (P32499 whole entry): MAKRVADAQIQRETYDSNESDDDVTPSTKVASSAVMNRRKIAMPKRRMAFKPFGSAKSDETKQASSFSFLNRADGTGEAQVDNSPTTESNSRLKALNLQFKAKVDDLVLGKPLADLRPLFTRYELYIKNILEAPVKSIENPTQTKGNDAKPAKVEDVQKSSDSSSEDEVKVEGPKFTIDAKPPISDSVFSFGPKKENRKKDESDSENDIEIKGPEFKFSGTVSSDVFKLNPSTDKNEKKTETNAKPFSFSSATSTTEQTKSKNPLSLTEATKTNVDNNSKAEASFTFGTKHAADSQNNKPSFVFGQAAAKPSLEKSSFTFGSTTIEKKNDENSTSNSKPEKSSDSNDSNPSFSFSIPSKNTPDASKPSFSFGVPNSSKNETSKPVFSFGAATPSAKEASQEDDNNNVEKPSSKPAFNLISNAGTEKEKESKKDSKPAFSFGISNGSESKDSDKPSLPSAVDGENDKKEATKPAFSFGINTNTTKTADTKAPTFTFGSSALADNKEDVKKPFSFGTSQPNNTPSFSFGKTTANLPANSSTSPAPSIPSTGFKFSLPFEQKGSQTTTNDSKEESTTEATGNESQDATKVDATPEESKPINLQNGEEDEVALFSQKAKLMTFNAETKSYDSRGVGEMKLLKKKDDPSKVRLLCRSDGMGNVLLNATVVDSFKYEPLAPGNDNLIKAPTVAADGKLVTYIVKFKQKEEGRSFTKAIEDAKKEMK

B1: Kap60p (recombinant) (natural protein, S. cerevisiae, UniProt Q02821 1-542, looked up)
chain: MDNGTDSSTSKFVPEYRRTNFKNKGRFSADELRRRRDTQQVELRKAKRDEALAKRRNFIPPTDGADSDEEDESSVSADQQFYSQLQQELPQMTQQLNSDDMQEQLSATVKFRQILSREHRPPIDVVIQAGVVPRLVEFMRENQPEMLQLEAAWALTNIASGTSAQTKVVVDADAVPLFIQLLYTGSVEVKEQAIWALGNVAGDSTDYRDYVLQCNAMEPILGLFNSNKPSLIRTATWTLSNLCRGKKPQPDWSVVSQALPTLAKLIYSMDTETLVDACWAISYLSDGPQEAIQAVIDVRIPKRLVELLSHESTLVQTPALRAVGNIVTGNDLQTQVVINAGVLPALRLLLSSPKENIKKEACWTISNITAGNTEQIQAVIDANLIPPLVKLLEVAEYKTKKEACWAISNASSGGLQRPDIIRYLVSQGCIKPLCDLLEIADNRIIEVTLDALENILKMGEADKEARGLNINENADFIEKAGGMEKIFNCQQNENDKIYEKAYKIIETYFGEEEDAVDETMAPQNAGNTFGFGSNVNQQFNFN
Kd [1]: ~0.2 nM

B2: GST–Nup60p (aa 188–388) (domain or fragment, S. cerevisiae, UniProt P39705 188-388, looked up)
chain: PTFNPKYDTSNASMNTTLGSIGSRKYSFNYSSLPSPYKTTVYRYSAAKKIPDTYTANTSAQSIASAKSVRSGVSKSAPSKKISNTAAALVSLLDENDSKKNNAASELANPYSSYVSQIRKHKRVSPNAAPRQEISEEETTVKPLFQNVPEQGEEPMKQLNATKISPSAPSKDSFTKYKPARSSSLRSNVVVAETSPEKKDG
binding result (Kap95p (recombinant)): binds

B3: Prp20p (natural protein)
chain: MVKRTVATNGDASGAHRAKKMSKTHASHIINAQEDYKHMYLSVQPLDIFCWGTGSMCELGLGPLAKNKEVKRPRLNPFLPRDEAKIISFAVGGMHTLALDEESNVWSWGCNDVGALGRDTSNAKEQLKDMDADDSSDDEDGDLNELESTPAKIPRESFPPLAEGHKVVQLAATDNMSCALFSNGEVYAWGTFRCNEGILGFYQDKIKIQKTPWKVPTFSKYNIVQLAPGKDHILFLDEEGMVFAWGNGQQNQLGRKVMERFRLKTLDPRPFGLRHVKYIASGENHCFALTKDNKLVSWGLNQFGQCGVSEDVEDGALVTKPKRLALPDNVVIRSIAAGEHHSLILSQDGDLYSCGRLDMFEVGIPKDNLPEYTYKDVHGKARAVPLPTKLNNVPKFKSVAAGSHHSVAVAQNGIAYSWGFGETYAVGLGPFEDDTEVPTRIKNTATQDHNIILVGCGGQFSVSGGVKLSDEDAEKRADEMDD
binding result (GST–Nup60p): binds

B4: GST–Nup60p (aa 389–539) (domain or fragment, S. cerevisiae, UniProt P39705 389-539, looked up)
chain: GDKPPSSAFNFSFNTSRNVEPTENAYKSENAPSASSKEFNFTNLQAKPLVGKPKTELTKGDSTPVQPDLSVTPQKSSSKGFVFNSVQKKSRSNLSQENDNEGKHISASIDNDFSEEKAEEFDFNVPVVSKQLGNGLVDENKVEAFKSLYTF
binding result [2]: binds

B5: GST–Nup60p (aa 1–187) (domain or fragment, S. cerevisiae, UniProt P39705 1-187, looked up)
chain: MHRKSLRRASATVPSAPYRKQIISNAHNKPSLFSKIKTFFTQKDSARVSPRNNVANKQPRNESFNRRISSMPGGYFHSEISPDSTVNRSVVVSAVGEARNDIENKEEEYDETHETNISNAKLANFFSKKGNEPLSEIEIEGVMSLLQKSSKSMITSEGEQKSAEGNNIDQSLILKESGSTPISISNA
binding result (Kap95p (recombinant)): binds
